The target in data set [1] is T1, HcIDH (Homo sapiens, UniProt O75874).
T1 construct: gene IDH1; synthetic gene, 6xHis-tagged, pET-28b(+), E. coli Rosetta (DE3); 420 residues per subunit
The data set is described as follows: NADPH formation at […] nm, nonlinear regression. To be noted: 0.5 mM NADP+, 2 mM MgCl2, 50 mM Tris-HCl pH 8.0, 25°C; apparent; as D-isocitrate; read-out: Isocitrate ^a / K m. In kind it is biochemical.

In data set [2] the target is T2, HcIDH (Homo sapiens, UniProt O75874, R132H).
T2 construct: gene IDH1; synthetic gene, 6xHis-tagged, pET-28b(+), E. coli Rosetta (DE3); 420 residues per subunit
T2 sequence (O75874 whole entry R132H): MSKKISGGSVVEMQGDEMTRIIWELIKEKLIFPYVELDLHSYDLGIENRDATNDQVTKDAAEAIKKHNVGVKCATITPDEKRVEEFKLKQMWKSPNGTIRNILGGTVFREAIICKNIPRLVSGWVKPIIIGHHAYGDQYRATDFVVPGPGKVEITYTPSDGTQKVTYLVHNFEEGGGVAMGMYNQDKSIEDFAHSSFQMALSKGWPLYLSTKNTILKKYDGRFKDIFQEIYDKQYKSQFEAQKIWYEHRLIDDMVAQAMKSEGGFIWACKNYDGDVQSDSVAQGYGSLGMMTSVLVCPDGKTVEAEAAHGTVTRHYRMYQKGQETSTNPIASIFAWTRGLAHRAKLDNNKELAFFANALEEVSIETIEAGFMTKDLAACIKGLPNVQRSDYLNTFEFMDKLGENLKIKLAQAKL
In words: NADPH formation at […] nm, linear regression. The settings on record: 0.5 mM NADP+, 2 mM MgCl2, 50 mM Tris-HCl pH 8.0, 25°C; apparent; as D-isocitrate; read-out: Isocitrate ^a / K m. In kind it is biochemical.

For data set [3], the target named is T2, HcIDH. The data set is described as follows: NADPH consumption at […] nm. In kind it is biochemical. To be noted: 2 mM MgCl2, 50 mM Tris-HCl pH 8.0, neomorphic reduction to 2-HG, read-out: α-KG / K m.
Substrate in data set [4]: NC(=O)c1ccc[n+]([C@@H]2O[C@H](COP(=O)(O)OP(=O)(O)OC[C@H]3O[C@@H](n4cnc5c(N)ncnc54)[C@H](OP(=O)(O)O)[C@@H]3O)[C@@H](O)[C@H]2O)c1
In words: purified protein. Format: biochemical, Saccharomyces cerevisiae. To be noted: isocitrate, MgCl2, 50 mM Tris-HCl pH 8.0, 25°C, varied: cofactor.

Substrate in data set [5]: O=C(O)C[C@H](C(=O)O)[C@@H](O)C(=O)O
In words: purified protein. Format: biochemical, Saccharomyces cerevisiae. To be noted: 0.5 mM NADP+, 2 mM MgCl2, 50 mM Tris-HCl pH 8.0, 25°C, apparent, as D-isocitrate.

Substrate in data set [6]: NC(=O)C1=CN([C@@H]2O[C@H](COP(=O)(O)OP(=O)(O)OC[C@H]3O[C@@H](n4cnc5c(N)ncnc54)[C@H](OP(=O)(O)O)[C@@H]3O)[C@@H](O)[C@H]2O)C=CC1
In words: purified protein. Format: biochemical, Saccharomyces cerevisiae. To be noted: α-KG, 2 mM MgCl2, 50 mM Tris-HCl pH 8.0, neomorphic reduction, varied: cofactor.

Substrate in data set [7]: O=C(O)CCC(=O)C(=O)O
In words: purified protein. Format: biochemical, Saccharomyces cerevisiae. The settings on record: NADPH, 2 mM MgCl2, 50 mM Tris-HCl pH 8.0, neomorphic reduction to 2-HG.

Substrate in data set [8]: NC(=O)c1ccc[n+]([C@@H]2O[C@H](COP(=O)(O)OP(=O)(O)OC[C@H]3O[C@@H](n4cnc5c(N)ncnc54)[C@H](OP(=O)(O)O)[C@@H]3O)[C@@H](O)[C@H]2O)c1
The data set is described as follows: purified protein. In kind it is biochemical, Yarrowia lipolytica. The settings on record: isocitrate, MgCl2, 50 mM Tris-HCl pH 8.0, 25°C, varied: cofactor.

Substrate in data set [9]: O=C(O)C[C@H](C(=O)O)[C@@H](O)C(=O)O
In words: purified protein. Format: biochemical, Yarrowia lipolytica. The settings on record: 0.5 mM NADP+, 2 mM MgCl2, 50 mM Tris-HCl pH 8.0, 25°C, apparent, as D-isocitrate.

Substrate in data set [10]: NC(=O)C1=CN([C@@H]2O[C@H](COP(=O)(O)OP(=O)(O)OC[C@H]3O[C@@H](n4cnc5c(N)ncnc54)[C@H](OP(=O)(O)O)[C@@H]3O)[C@@H](O)[C@H]2O)C=CC1
The data set is described as follows: purified protein. Format: biochemical, Yarrowia lipolytica. The settings on record: α-KG, 2 mM MgCl2, 50 mM Tris-HCl pH 8.0, neomorphic reduction, varied: cofactor.

Substrate in data set [11]: O=C(O)CCC(=O)C(=O)O
The data set is described as follows: purified protein. Format: biochemical, Yarrowia lipolytica. To be noted: NADPH, 2 mM MgCl2, 50 mM Tris-HCl pH 8.0, neomorphic reduction to 2-HG.

T1 sequence (O75874 whole entry): as the sequence (O75874 whole entry R132H) above, with H132R counted along it

On to `O=C(O)C[C@H](C(=O)O)[C@@H](O)C(=O)O` [isocitrate], for which the Km came to 5.7 ± 1.4 µM on HcIDH [1] and 2280 ± 195 µM at HcIDH [2].
On to `O=C(O)CCC(=O)C(=O)O` [α-KG], for which, on HcIDH [3], the Km worked out at 157 ± 38.4 µM.

B1: ScIDH1 (Saccharomyces cerevisiae S288C) (protein)
chain: FSKIKVKQPVVELDGDEMTRIIWDKIKKKLILPYLDVDLKYYDLSVESRDATSDKITQDAAEAIKKYGVGIKCATITPDEARVKEFNLHKMWKSPNGTIRNILGGTVFREPIVIPRIPRLVPRWEKPIIIGRHAHGDQYKATDTLIPGPGSLELVYKPSDPTTAQPQTLKVYDYKGSGVAMAMYNTDESIEGFAHSSFKLAIDKKLNLFLSTKNTILKKYDGRFKDIFQEVYEAQYKSKFEQLGIHYEHRLIDDMVAQMIKSKGGFIMALKNYDGDVQSDIVAQGFGSLGLMTSILVTPDGKTFESEAAHGTVTRHYRKYQKGEETSTNSIASIFAWSRGLLKRGELDNTPALCKFANILESATLNTVQQDGIMTKDLALACGNNERSAYVTTEEFLDAVEKRLQKEIKSIE
notes: 6xHis-tagged, pET-28b(+), E. coli Rosetta (DE3); transit peptide absent (forward primer encodes M-FSKIKVK); 419 residues per subunit
With B1, in the data set “purified protein [4]”, the Km came out at 17.4 ± 2.01 µM. Also, in the data set “purified protein [5]”, the Km stood at 10.5 ± 1.2 µM; the turnover number (kcat) (as a rule, the maximal rate divided by the concentration of active sites) came out at 26.3 ± 0.09 s⁻¹; the catalytic efficiency (kcat/Km) (usually the second-order rate constant that governs catalysis at low substrate concentration) turned out to be 2.5e+06 M⁻¹ s⁻¹.

B2: ScIDH1 (Saccharomyces cerevisiae S288C; R148H) (protein)
chain: FSKIKVKQPVVELDGDEMTRIIWDKIKKKLILPYLDVDLKYYDLSVESRDATSDKITQDAAEAIKKYGVGIKCATITPDEARVKEFNLHKMWKSPNGTIRNILGGTVFREPIVIPRIPRLVPRWEKPIIIGHHAHGDQYKATDTLIPGPGSLELVYKPSDPTTAQPQTLKVYDYKGSGVAMAMYNTDESIEGFAHSSFKLAIDKKLNLFLSTKNTILKKYDGRFKDIFQEVYEAQYKSKFEQLGIHYEHRLIDDMVAQMIKSKGGFIMALKNYDGDVQSDIVAQGFGSLGLMTSILVTPDGKTFESEAAHGTVTRHYRKYQKGEETSTNSIASIFAWSRGLLKRGELDNTPALCKFANILESATLNTVQQDGIMTKDLALACGNNERSAYVTTEEFLDAVEKRLQKEIKSIE
notes: as for B1
Take B2: the Km in the data set “purified protein [6]” turned out to be 5.9 ± 0.51 µM. Besides, in the data set “purified protein [7]”, the Km came to 30.0 ± 1.76 µM, the turnover number (kcat) is 0.34 ± 0.009 s⁻¹ and the catalytic efficiency (kcat/Km) stood at 11000 M⁻¹ s⁻¹. In addition, in “purified protein [5]”, the Km was determined as 24.8 ± 3.2 µM, the kcat was found to be 0.27 ± 0.015 s⁻¹ and the specificity constant (kcat/Km) was 11000 M⁻¹ s⁻¹.

B3: ScIDH1 (Saccharomyces cerevisiae S288C; R148A) (protein)
chain: FSKIKVKQPVVELDGDEMTRIIWDKIKKKLILPYLDVDLKYYDLSVESRDATSDKITQDAAEAIKKYGVGIKCATITPDEARVKEFNLHKMWKSPNGTIRNILGGTVFREPIVIPRIPRLVPRWEKPIIIGAHAHGDQYKATDTLIPGPGSLELVYKPSDPTTAQPQTLKVYDYKGSGVAMAMYNTDESIEGFAHSSFKLAIDKKLNLFLSTKNTILKKYDGRFKDIFQEVYEAQYKSKFEQLGIHYEHRLIDDMVAQMIKSKGGFIMALKNYDGDVQSDIVAQGFGSLGLMTSILVTPDGKTFESEAAHGTVTRHYRKYQKGEETSTNSIASIFAWSRGLLKRGELDNTPALCKFANILESATLNTVQQDGIMTKDLALACGNNERSAYVTTEEFLDAVEKRLQKEIKSIE
notes: as for B1
With B3, in the data set “purified protein [5]”, the Km stood at 2263.1 ± 177.3 µM, the turnover number (kcat) came to 12.4 ± 5.31 s⁻¹ and the catalytic efficiency (kcat/Km) was determined as 5000 M⁻¹ s⁻¹.

B4: YlIDH (Yarrowia lipolytica CLIB122) (protein)
chain: MSTTATRGLSTKIKVKNPIVELDGDEMTRIIWKSIKDKLILPYLDIDLKYYDLGIEYRDQTNDQVTIDAAEAIKKYQVGVKCATITPDEARVKEFGLKKMWLSPNGTIRNILGGTVFREPIVIPAVPRLVPGWKEPIIIGRHAHGDQYKAQDAVIPGAGELTLNFKPANGGDEQVIKVYTYDAPGVAMAMYNTDESITGFAYSSFNLALQKKLPLYMSTKNTILKKYDGRFKDIFQEIYDKEYKDKFDAAGIWYEHRLIDDMVAQMIKSKGGFIMALKNYDGDVQSDIVAQGFGSLGLMTSVLVTPDGKTFESEAAHGTVTRHYRQHQQGKETSTNSIASIFAWTRGLIQRGILDETPEVTKFAEALEKATVDTVDKDGIMTKDLALAGGKTDRSSYVLTEEFIDAVANRLKKDLA
notes: 6xHis-tagged, pET-28b(+), E. coli Rosetta (DE3); forward primer encodes MSTTATR; 422 residues per subunit
For B4, in the data set “purified protein [8]”, the Km is 4.1 ± 0.76 µM. Moreover, in the data set “purified protein [9]”, the Km was 11.7 ± 1.1 µM, the catalytic constant (kcat) was found to be 26.6 ± 0.87 s⁻¹ and the kcat/Km was determined as 2.3e+06 M⁻¹ s⁻¹.

B5: YlIDH (Yarrowia lipolytica CLIB122; R141H) (protein)
chain: MSTTATRGLSTKIKVKNPIVELDGDEMTRIIWKSIKDKLILPYLDIDLKYYDLGIEYRDQTNDQVTIDAAEAIKKYQVGVKCATITPDEARVKEFGLKKMWLSPNGTIRNILGGTVFREPIVIPAVPRLVPGWKEPIIIGHHAHGDQYKAQDAVIPGAGELTLNFKPANGGDEQVIKVYTYDAPGVAMAMYNTDESITGFAYSSFNLALQKKLPLYMSTKNTILKKYDGRFKDIFQEIYDKEYKDKFDAAGIWYEHRLIDDMVAQMIKSKGGFIMALKNYDGDVQSDIVAQGFGSLGLMTSVLVTPDGKTFESEAAHGTVTRHYRQHQQGKETSTNSIASIFAWTRGLIQRGILDETPEVTKFAEALEKATVDTVDKDGIMTKDLALAGGKTDRSSYVLTEEFIDAVANRLKKDLA
notes: as for B4
On to B5, for which the Km in the data set “purified protein [10]” is 3.2 ± 0.43 µM. Besides, in the data set “purified protein [11]”, the Km worked out at 47.3 ± 4.2 µM, the kcat is 0.43 ± 0.017 s⁻¹ and the specificity constant (kcat/Km) is 9000 M⁻¹ s⁻¹. For the same molecule, in “purified protein [9]”, the Km is 25.6 ± 2.3 µM, the kcat stood at 0.14 ± 0.006 s⁻¹ and the kcat/Km worked out at 5000 M⁻¹ s⁻¹.

(Values after article PMC4263744, “Single Arginine Mutation in Two Yeast Isocitrate Dehydrogenases: Biochemical Characterization and Functional Implication” (PLoS ONE, 2014).)
